Measurements published in patent US20160347807A1, “TARGETING P53 AND ITS DNA-BINDING DOMAIN” (UNIVERSITY OF UTAH RESEARCH DOUNDATION, priority 2014, published 2016).
“Also recorded” adds a separate entry of the source.

Legend:
Assay type in all cases: cell-based, human
[1] = system: T47D cells; assay: 7-AAD assay in T47D cells; details: 48 h after transfection, EGFP positive cells only
Protocol: (§1) Transfected T47D, MCF-7, MDA-MB-231, HeLa and H1373 cells were pelleted and resuspended in 500 μL PBS (Invitrogen) containing 1 μM 7-aminoactinomycin D (7-AAD) (Invitrogen) for 30 min prior to analysis following the recommended protocol from the manufacturer. The assay was performed 48 h after transfection for T47D, MCF-7 and H1373 and 24 h after transfection for MDA-MB-231 and HeLa. Only EGFP positive cells were analyzed by using the FACS Canto-II (BD-BioSciences) with FACS Diva software. EGFP and 7-AAD were excited with the 488 nm laser, and were detected at 507 nm and 660 nm, respectively. Independent transfections of each construct were tested three times (n=3).
(§2) Transfected T47D, H1373, SKOV-3 and HeLa cells were pelleted and re-suspended in 500 μL PBS (Invitrogen) containing 1 μM 7-aminoactinomycin D (7-AAD) (Invitrogen) for 30 min prior to analysis. T47D and H1373 cells were analyzed 48 h after transfection, while SKOV-3 and HeLa cells were analyzed 24 h after transfection (time points optimized empirically). Only EGFP positive cells were assayed using the FACS Canto-II (BD-BioSciences) with FACS Diva software as previously. EGFP and 7-AAD were excited at 488 nm, and detected at 507 nm and 660 nm, respectively. Independent transfections of each construct were assayed three times (n=3). The highest value (EGFP positive cells stained with 7-AAD) was set at 100%, and the lowest at 0% (relative 7-AAD) as previously.

[2] = system: T47D cells; assay: Rescue experiment using BFP-Bcl-XL (7-AAD) in T47D cells; details: 48 h after transfection, Bcl-XL overexpression
Protocol: T47D cells were co-transfected with 1 pmol of EGFP constructs and 1 pmol of BFP-Bcl-XL (BFP tag is necessary for gating Bcl-XL transfected cells). 48 h after transfection the 7-AAD assay was performed as described above. FACSCanto-II (BD-BioSciences) and FACSDiva software were used for EGFP and BFP gating. Excitation was set at 488 nm, and detected at 507 nm and 660 nm for EGFP and 7-AAD, respectively. BFP was excited at 405 nm and detected at 457 nm. Independent transfections of each construct were tested three times (n=3).

[3] = system: T47D cells; assay: Annexin V assay in T47D cells; details: 48 h after transfection
Protocol: 48 h after transfection, T47D cells were pelleted and resuspended in 400 μL of annexin-V binding buffer (Invitrogen) and incubated with 5 μL of annexin-APC (annexin-V conjugated to allophycocyanin, Invitrogen) for 15 min as before. Only transfected cells were analyzed as mentioned in 7-AAD assay. EGFP and APC were excited at 488 nm and 635 nm wavelengths, respectively and detected at their corresponding 507 nm and 660 nm wavelengths. Independent transfections of each construct were tested three times (n=3).

[4] = system: HeLa cells; assay: 7-AAD assay in HeLa cells; details: 24 h after transfection
Protocol: as §1, §2

[5] = system: T47D cells; assay: TUNEL assay in T47D cells; details: 48 h after transfection
Protocol: T47D cells were harvested 48 h after transfection. In situ Death Detection Kit, TMR red (Roche, Mannheim, Germany) was used following manufacturer's recommendations as before. Cells were resuspended in PBS (Invitrogen) and analyzed via the FACSAria-II (BD-Biosciences, University of Utah Core Facility). EGFP and TMR red were excited at 488 nm and 563 nm, respectively, and FACSDiva software was used to analyze the data. Independent transfections of each construct were tested three times (n=3).

“p53m6-BakMTS: p53-BakMTS with K120A, R248A, R273A, R280A, E285A, E287A mutations” was tested, and the “7-AAD positive cells (late apoptosis)” value [1] was “not significantly different from their negative control; also recorded: complete loss in apoptotic activity compared to their non-mutated controls”.

With “DBDK120E-BakMTS: DBD-BakMTS with K120E mutation” the “7-AAD positive cells (late apoptosis)” value [1] was “not statistically significant from the negative control E-BakMTS”.

For “p53ΔC-XL: EGFP, p53ΔC (amino acids 1-322, lacks the C-terminus) and XL MTS”, the “7-AAD positive cells (late apoptosis)” value [1] was “statistically higher than the negative control E-XL; also recorded: not statistically significant from each other”.

With “p53K120E-BakMTS: p53-BakMTS with K120E mutation” the “7-AAD positive cells (late apoptosis)” value [1] was “not statistically significant from the negative control E-BakMTS”.

B1: PRD-XL: EGFP, proline-rich domain of p53, XL MTS (protein)
chain: APRMPEAAPPVAPAPAAPTPAAPAPAPSWPLSSSVRKGQERFNRWFLTGMTVAGVVLLGSLFSRK
modifications: left off: large carriers
notes: EGFP, proline-rich domain of p53, XL MTS
In the case of B1, the “7-AAD positive cells (late apoptosis)” value [1] is reported as “not statistically significant from the negative control E-XL indicating no apoptotic activity; also recorded: statistically significantly lower than p53-XL”, the “apoptotic activity (7-AAD) on cotransfection of BFP-Bcl-XL (rescue)” value [2] is reported as “not altered by Bcl-XL overexpression” and the “Annexin V positive cells (apoptotic potential)” value [3] is reported as “not statistically significant from the negative control”. The “7-AAD positive cells (late apoptosis)” value [4] was “statistically significant from p53-XL” and the “TUNEL positive cells (DNA fragmentation)” value [5] was “not statistically different from the negative control; also recorded: statistically significantly lower than p53-XL”.

B2: TD-XL: EGFP, tetramerization domain of p53, XL MTS (protein)
chain: LDGEYFTLQIRGRERFEMFRELNEALELKDAQAGRKGQERFNRWFLTGMTVAGVVLLGSLFSRK
modifications: left off: large carriers
notes: EGFP, tetramerization domain of p53, XL MTS
For B2, the “7-AAD positive cells (late apoptosis)” value [1] was “statistically different from the negative controls but is also significantly lower than p53-XL”, the “apoptotic activity (7-AAD) on cotransfection of BFP-Bcl-XL (rescue)” value [2] was “reduction in apoptotic potential” and the “Annexin V positive cells (apoptotic potential)” value [3] was “not statistically significant from the negative control”. The “TUNEL positive cells (DNA fragmentation)” value [5] was “not statistically different from the negative control; also recorded: statistically significantly lower than p53-XL”.

B3: DBDm6-BakMTS: DBD-BakMTS with K120A, R248A, R273A, R280A, E285A, E287A mutations (protein)
chain: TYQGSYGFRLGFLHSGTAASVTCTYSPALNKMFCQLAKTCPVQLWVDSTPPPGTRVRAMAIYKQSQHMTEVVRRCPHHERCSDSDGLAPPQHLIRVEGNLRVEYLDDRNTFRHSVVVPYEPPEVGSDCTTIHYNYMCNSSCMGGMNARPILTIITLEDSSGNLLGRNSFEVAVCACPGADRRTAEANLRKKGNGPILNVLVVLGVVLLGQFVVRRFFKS
modifications: left off: large carriers
notes: DBD-BakMTS with K120A, R248A, R273A, R280A, E285A, E287A mutations
B3 was tested, and the “7-AAD positive cells (late apoptosis)” value [1] was “not significantly different from their negative control; also recorded: complete loss in apoptotic activity compared to their non-mutated controls”.
